Measured values as given in patent WO2016008851A1 (dated 2016).

Tests used:
[1] = biological target: T1, recombinant human IL-1B (human, UniProt P01584 117-269); assay: cell-based or functional assay
[2] = biological target: Endogenous human IL-1B (THP1 supernatants) (human, UniProt P01584 117-269); assay: cell-based or functional assay
[3] = biological target: recombinant cynomolgus IL-1B (cynomolgus, UniProt P79182 117-268, limits assumed); assay: cell-based or functional assay
[4] = biological target: recombinant mouse IL-1B (mouse, UniProt P10749 118-269); assay: cell-based or functional assay
[5] = biological target: T1, recombinant human IL-1B; assay: Kinexa
[6] = biological target: T1, recombinant human IL-1B; assay: Kinexa, solution equilibrium titration of hIL-1B against 10 pM antibody; mean ± SEM (N = 3)

Chain of recombinant cynomolgus IL-1B (P79182 117-268 limits assumed): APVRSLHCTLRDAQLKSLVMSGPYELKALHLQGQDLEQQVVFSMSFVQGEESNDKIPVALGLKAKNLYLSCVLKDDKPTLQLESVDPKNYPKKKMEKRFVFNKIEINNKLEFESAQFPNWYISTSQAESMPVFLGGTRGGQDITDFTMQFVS
Chain of recombinant mouse IL-1B (P10749 118-269 limits assumed): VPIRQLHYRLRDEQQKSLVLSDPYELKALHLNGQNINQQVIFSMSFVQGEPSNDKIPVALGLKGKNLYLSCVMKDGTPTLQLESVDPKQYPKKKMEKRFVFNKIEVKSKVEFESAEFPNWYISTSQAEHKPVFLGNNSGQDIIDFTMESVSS

| IC50, rec. human IL-1 B, HEK blue [1] [nM] | IC50, rec. human IL-1 B, MRC-5 (IL-6 production) [1] [nM] | IC90, rec. human IL-1 B, HEK blue [1] [nM] | IC90, rec. human IL-1 B, MRC-5 (IL-6 production) [1] [nM] | IC50, Endogenous human IL-1 B (THP1 supernatants), HEK blue [2] [nM] | IC90, Endogenous human IL-1 B (THP1 supernatants), HEK blue [2] [nM] | IC50, rec. cyno IL-1 B, HEK blue [3] [nM] | IC90, rec. cyno IL-1 B, HEK blue [3] [nM] | IC50, rec. mouse IL-1 B, HEK blue [4] [nM] | IC90, rec. mouse IL-1 B, HEK blue [4] [nM] | IC50, mouse IL-1 B-induced KC release, mouse endothelial bEnd3 cells stimulated with 15 pM recombinant mouse IL-1 B [4] [nM] | Kd [5] [nM] | Kd [6] [nM] | Binder |
| --- | --- | --- | --- | --- | --- | --- | --- | --- | --- | --- | --- | --- | --- |
| 0.013 | 0.013 | 0.11 | 0.11 | 0.003 | 0.068 | 0.013 | 0.127 | – | – | – | – | – | Antibody B1 (antibody, V domains shown) VH: EVQLVQSGAEVKKPGASVKVSCKASGFSFTGYYMHWVRQAPGQGLEWVGLIIPHNDYTVNNQKFKGRVTMTRDTSTSTAYMELSSLRSEDTAVYYCARSDYYGAMDYWGQGTLVTVSS VL: EIVMTQSPATLSVSPGERATLSCRASQNIGTSIHWYQQKPGQAPRLLIKYASNSIYGIPARFSGSGSGTEFTLTISSLQSEDIAVYYCQQGASWPPFTFGQGTKLEIK |
| 0.008 | 0.008 | 0.257 | 0.257 | 0.001 | 0.075 | 0.014 | 0.154 | – | – | – | – | – | Antibody B3 (antibody, V domains shown) VH: EVQLVQSGAEVKKPGASVKVSCKASGFSFTGYYMHWVRQAPGQGLEWVGLIIPHNDYTVNNQKFKGRVTMTRDTSTSTAYMELSSLRSEDTAVYYCARSDYYGAMDYWGQGTLVTVSS VL: EIVMTQSPATLSVSPGERATLSCRASQNIGTSIHWYQQKPGQAPRLLIKYASDSVYGIPARFSGSGSGTEFTLTISSLQSEDIAVYYCQQGASWPPFTFGQGTKLEIK |
| 0.018 | 0.018 | 0.098 | 0.098 | 0.007 | 0.091 | 0.02 | 0.101 | – | – | – | – | – | Antibody B4 (antibody, V domains shown) VH: EVQLVQSGAEVKKPGASVKVSCKASGFSFTGYYMHWVRQAPGQGLEWVGLIIPHNDYTVNNQKFKGRVTMTRDTSTSTAYMELSSLRSEDTAVYYCARSDYYGAMDYWGQGTLVTVSS VL: EIVMTQSPATLSVSPGERATLSCRASQNIGTSIHWYQQKPGQAPRLLIKYASDSKDGIPARFSGSGSGTEFTLTISSLQSEDIAVYYCQQGASWPPFTFGQGTKLEIK |

The remaining lines, values behind:

| Binder | IC50, rec. human IL-1 B, HEK blue [1] [nM] | IC50, rec. human IL-1 B, MRC-5 (IL-6 production) [1] [nM] | IC90, rec. human IL-1 B, HEK blue [1] [nM] | IC90, rec. human IL-1 B, MRC-5 (IL-6 production) [1] [nM] | IC50, Endogenous human IL-1 B (THP1 supernatants), HEK blue [2] [nM] | IC90, Endogenous human IL-1 B (THP1 supernatants), HEK blue [2] [nM] | IC50, rec. cyno IL-1 B, HEK blue [3] [nM] | IC90, rec. cyno IL-1 B, HEK blue [3] [nM] | IC50, rec. mouse IL-1 B, HEK blue [4] [nM] | IC90, rec. mouse IL-1 B, HEK blue [4] [nM] | IC50, mouse IL-1 B-induced KC release, mouse endothelial bEnd3 cells stimulated with 15 pM recombinant mouse IL-1 B [4] [nM] | Kd [5] [nM] | Kd [6] [nM] |
| --- | --- | --- | --- | --- | --- | --- | --- | --- | --- | --- | --- | --- | --- |
| Antibody A1 (antibody, V domains shown) VH: QVQLVQSGAEVKKPGASVKVSCKATGYTFTNYWIAWVKQAPGQGLEWMGSIFPGGDYTNYNEKFKGKVTMTRDTSTSTSYMELSSLRSEDTAVYYCARPYYSNYGHFDYWGQGTLVTVSS VL: EIVLTQSPATLSLSPGERATLSCRASESVDNSGIGFMNWYQQKPGQAPKLLIYAASNQGSGIPARFSGSGSGTDFTLTISRLEPEDFAMYYCQQNKELPWTFGGGTKLEIK | 0.033 | 0.01 | 0.329 | 0.131 | 0.009 | 0.15 | 0.03 | 0.167 | 1.14 | 3.25 | – | – | – |
| Antibody A4 (antibody, V domains shown) VH: QVQLVQSGAEVKKPGASVKVSCKATGYTFTDYWIAWVRQAPGQGLEWMGSIFPGGDYTNYNEKFKGRVTMTRDTSTSTSYMELSSLRSEDTAVYYCARPYYSNYGHFDYWGQGTLVTVSS VL: EIVLTQSPATLSLSPGERATLSCRASESVDNSGIGFMNWYQQKPGQAPRLLIYAASNQGSGIPARFSGSGSGTDFTLTISRLEPEDFAVYYCQQNKELPWTFGQGTKLEIK | 0.04 | 0.016 | 0.495 | 0.125 | 0.036 | 0.262 | 0.026 | 0.205 | 1.08 | 3.98 | – | – | – |
| Antibody A3 (antibody, V domains shown) VH: QVQLVQSGAEVKKPGASVKVSCKATGYTFTDYWIAWVRQAPGQGLEWMGSIFPGGDYTNYNEKFKGRVTMTRDTSTSTSYMELSSLRSEDTAIYYCARPYYSNYGHFDYWGQGTLVTVSS VL: EIILTQFPATLSLSPGERATISCRASESVDNSGIGFMNWYQQKPGQAPRLLIYAASNQGSGIPARFSGSGSGTDFTLTISRLEPEDFAVYYCQQNKELPWTFGQGTKLEIK | 0.042 | 0.013 | 0.34 | 0.162 | 0.008 | 0.246 | 0.023 | 0.236 | 0.998 | 3.64 | – | – | – |
| 36C2 (original hybridoma antibody) (antibody, V domains shown) VH: QVQLQQSGAELARPGTSLKMSCKATGYTFTNYWIAWVKQRPGYGLEWIGSIFPGGDYTNYNEKFKGKATLTADTSSSTSYMQLSSLTSEDSAIYYCTRPYYSNYGHFDYWGQGTTLTVSS VL: not shown | – | – | – | – | – | – | – | – | – | – | 0.5 | – | – |
| 36C2 (recombinant chimeric antibody: mouse 36C2 variable domains, human IgG1 constant domains) (antibody, V domains shown, also called chimeric antibody 36C2) VH: QVQLQQSGAELARPGTSLKMSCKATGYTFTNYWIAWVKQRPGYGLEWIGSIFPGGDYTNYNEKFKGKATLTADTSSSTSYMQLSSLTSEDSAIYYCTRPYYSNYGHFDYWGQGTTLTVSS VL: not shown | 0.017 | 0.007 | 0.15 | 0.044 | 0.003 | 0.096 | 0.014 | 0.154 | – | – | – | < 0.01 | 0.00556 |
